Bridges are numbered along the chain shown (N, C = ends). Where no end group is shown, it is not given here.
B1: mt-128 (peptide)
peptide: HSQGTFTSDYSKYLDEIHQKDFIAWLMNGGPSSGAPPPS-NH2
modifications: lactam 16-20; N-terminus assumed
SMILES: CC[C@H](C)[C@H](NC(=O)[C@H](Cc1ccccc1)NC(=O)[C@H](CC(=O)O)NC(=O)[C@@H]1CCCCNC(=O)CC[C@H](NC(=O)[C@H](CC(=O)O)NC(=O)[C@H](CC(C)C)NC(=O)[C@H](Cc2ccc(O)cc2)NC(=O)[C@H](CCCCN)NC(=O)[C@H](CO)NC(=O)[C@H](Cc2ccc(O)cc2)NC(=O)[C@H](CC(=O)O)NC(=O)[C@H](CO)NC(=O)[C@@H](NC(=O)[C@H](Cc2ccccc2)NC(=O)[C@@H](NC(=O)CNC(=O)[C@H](CCC(N)=O)NC(=O)[C@H](CO)NC(=O)[C@@H](N)Cc2c[nH]cn2)[C@@H](C)O)[C@@H](C)O)C(=O)N[C@@H]([C@@H](C)CC)C(=O)N[C@@H](Cc2c[nH]cn2)C(=O)N[C@@H](CCC(N)=O)C(=O)N1)C(=O)N[C@@H](C)C(=O)N[C@@H](Cc1c[nH]c2ccccc12)C(=O)N[C@@H](CC(C)C)C(=O)N[C@@H](CCSC)C(=O)N[C@@H](CC(N)=O)C(=O)NCC(=O)NCC(=O)N1CCC[C@H]1C(=O)N[C@@H](CO)C(=O)N[C@@H](CO)C(=O)NCC(=O)N[C@@H](C)C(=O)N1CCC[C@H]1C(=O)N1CCC[C@H]1C(=O)N1CCC[C@H]1C(=O)N[C@@H](CO)C(N)=O
B2: mt-129 (peptide)
peptide: YSQGTFTSDYSKYLDEIHQKDFIAWLMNGGPSSGAPPPS-NH2
modifications: lactam 16-20; N-terminus assumed
SMILES: CC[C@H](C)[C@H](NC(=O)[C@H](Cc1ccccc1)NC(=O)[C@H](CC(=O)O)NC(=O)[C@@H]1CCCCNC(=O)CC[C@H](NC(=O)[C@H](CC(=O)O)NC(=O)[C@H](CC(C)C)NC(=O)[C@H](Cc2ccc(O)cc2)NC(=O)[C@H](CCCCN)NC(=O)[C@H](CO)NC(=O)[C@H](Cc2ccc(O)cc2)NC(=O)[C@H](CC(=O)O)NC(=O)[C@H](CO)NC(=O)[C@@H](NC(=O)[C@H](Cc2ccccc2)NC(=O)[C@@H](NC(=O)CNC(=O)[C@H](CCC(N)=O)NC(=O)[C@H](CO)NC(=O)[C@@H](N)Cc2ccc(O)cc2)[C@@H](C)O)[C@@H](C)O)C(=O)N[C@@H]([C@@H](C)CC)C(=O)N[C@@H](Cc2c[nH]cn2)C(=O)N[C@@H](CCC(N)=O)C(=O)N1)C(=O)N[C@@H](C)C(=O)N[C@@H](Cc1c[nH]c2ccccc12)C(=O)N[C@@H](CC(C)C)C(=O)N[C@@H](CCSC)C(=O)N[C@@H](CC(N)=O)C(=O)NCC(=O)NCC(=O)N1CCC[C@H]1C(=O)N[C@@H](CO)C(=O)N[C@@H](CO)C(=O)NCC(=O)N[C@@H](C)C(=O)N1CCC[C@H]1C(=O)N1CCC[C@H]1C(=O)N1CCC[C@H]1C(=O)N[C@@H](CO)C(N)=O
B3: mt-140 (peptide)
peptide: YSQGTFTSDYSIYLDEQAAKEFVNWLLAGGPSSGAPPPS-NH2
modifications: lactam 16-20; N-terminus assumed
SMILES: CC[C@H](C)[C@H](NC(=O)[C@H](CO)NC(=O)[C@H](Cc1ccc(O)cc1)NC(=O)[C@H](CC(=O)O)NC(=O)[C@H](CO)NC(=O)[C@@H](NC(=O)[C@H](Cc1ccccc1)NC(=O)[C@@H](NC(=O)CNC(=O)[C@H](CCC(N)=O)NC(=O)[C@H](CO)NC(=O)[C@@H](N)Cc1ccc(O)cc1)[C@@H](C)O)[C@@H](C)O)C(=O)N[C@@H](Cc1ccc(O)cc1)C(=O)N[C@@H](CC(C)C)C(=O)N[C@@H](CC(=O)O)C(=O)N[C@H]1CCC(=O)NCCCC[C@@H](C(=O)N[C@@H](CCC(=O)O)C(=O)N[C@@H](Cc2ccccc2)C(=O)N[C@H](C(=O)N[C@@H](CC(N)=O)C(=O)N[C@@H](Cc2c[nH]c3ccccc23)C(=O)N[C@@H](CC(C)C)C(=O)N[C@@H](CC(C)C)C(=O)N[C@@H](C)C(=O)NCC(=O)NCC(=O)N2CCC[C@H]2C(=O)N[C@@H](CO)C(=O)N[C@@H](CO)C(=O)NCC(=O)N[C@@H](C)C(=O)N2CCC[C@H]2C(=O)N2CCC[C@H]2C(=O)N2CCC[C@H]2C(=O)N[C@@H](CO)C(N)=O)C(C)C)NC(=O)[C@H](C)NC(=O)[C@H](C)NC(=O)[C@H](CCC(N)=O)NC1=O
B4: mt-141 (peptide)
peptide: YSQGTFTSDYSKYMDEQAAKEFVNWLLAGGPSSGAPPPS-NH2
modifications: lactam 16-20; N-terminus assumed
SMILES: CSCC[C@H](NC(=O)[C@H](Cc1ccc(O)cc1)NC(=O)[C@H](CCCCN)NC(=O)[C@H](CO)NC(=O)[C@H](Cc1ccc(O)cc1)NC(=O)[C@H](CC(=O)O)NC(=O)[C@H](CO)NC(=O)[C@@H](NC(=O)[C@H](Cc1ccccc1)NC(=O)[C@@H](NC(=O)CNC(=O)[C@H](CCC(N)=O)NC(=O)[C@H](CO)NC(=O)[C@@H](N)Cc1ccc(O)cc1)[C@@H](C)O)[C@@H](C)O)C(=O)N[C@@H](CC(=O)O)C(=O)N[C@H]1CCC(=O)NCCCC[C@@H](C(=O)N[C@@H](CCC(=O)O)C(=O)N[C@@H](Cc2ccccc2)C(=O)N[C@H](C(=O)N[C@@H](CC(N)=O)C(=O)N[C@@H](Cc2c[nH]c3ccccc23)C(=O)N[C@@H](CC(C)C)C(=O)N[C@@H](CC(C)C)C(=O)N[C@@H](C)C(=O)NCC(=O)NCC(=O)N2CCC[C@H]2C(=O)N[C@@H](CO)C(=O)N[C@@H](CO)C(=O)NCC(=O)N[C@@H](C)C(=O)N2CCC[C@H]2C(=O)N2CCC[C@H]2C(=O)N2CCC[C@H]2C(=O)N[C@@H](CO)C(N)=O)C(C)C)NC(=O)[C@H](C)NC(=O)[C@H](C)NC(=O)[C@H](CCC(N)=O)NC1=O
B5: mt-143 (peptide)
peptide: YSQGTFTSDYSKYLDERRAKEFVNWLLAGGPSSGAPPPS-NH2
modifications: lactam 16-20; N-terminus assumed
SMILES: CC(C)C[C@H](NC(=O)[C@H](CC(C)C)NC(=O)[C@H](Cc1c[nH]c2ccccc12)NC(=O)[C@H](CC(N)=O)NC(=O)[C@@H](NC(=O)[C@H](Cc1ccccc1)NC(=O)[C@H](CCC(=O)O)NC(=O)[C@@H]1CCCCNC(=O)CC[C@H](NC(=O)[C@H](CC(=O)O)NC(=O)[C@H](CC(C)C)NC(=O)[C@H](Cc2ccc(O)cc2)NC(=O)[C@H](CCCCN)NC(=O)[C@H](CO)NC(=O)[C@H](Cc2ccc(O)cc2)NC(=O)[C@H](CC(=O)O)NC(=O)[C@H](CO)NC(=O)[C@@H](NC(=O)[C@H](Cc2ccccc2)NC(=O)[C@@H](NC(=O)CNC(=O)[C@H](CCC(N)=O)NC(=O)[C@H](CO)NC(=O)[C@@H](N)Cc2ccc(O)cc2)[C@@H](C)O)[C@@H](C)O)C(=O)N[C@@H](CCCNC(=N)N)C(=O)N[C@@H](CCCNC(=N)N)C(=O)N[C@@H](C)C(=O)N1)C(C)C)C(=O)N[C@@H](C)C(=O)NCC(=O)NCC(=O)N1CCC[C@H]1C(=O)N[C@@H](CO)C(=O)N[C@@H](CO)C(=O)NCC(=O)N[C@@H](C)C(=O)N1CCC[C@H]1C(=O)N1CCC[C@H]1C(=O)N1CCC[C@H]1C(=O)N[C@@H](CO)C(N)=O
B6: mt-144 (peptide)
peptide: YAQGTFTSDYSIYMDEQAAKEFVNWLLAGGPSSGAPPPS-NH2
modifications: lactam 16-20; N-terminus assumed
SMILES: CC[C@H](C)[C@H](NC(=O)[C@H](CO)NC(=O)[C@H](Cc1ccc(O)cc1)NC(=O)[C@H](CC(=O)O)NC(=O)[C@H](CO)NC(=O)[C@@H](NC(=O)[C@H](Cc1ccccc1)NC(=O)[C@@H](NC(=O)CNC(=O)[C@H](CCC(N)=O)NC(=O)[C@H](C)NC(=O)[C@@H](N)Cc1ccc(O)cc1)[C@@H](C)O)[C@@H](C)O)C(=O)N[C@@H](Cc1ccc(O)cc1)C(=O)N[C@@H](CCSC)C(=O)N[C@@H](CC(=O)O)C(=O)N[C@H]1CCC(=O)NCCCC[C@@H](C(=O)N[C@@H](CCC(=O)O)C(=O)N[C@@H](Cc2ccccc2)C(=O)N[C@H](C(=O)N[C@@H](CC(N)=O)C(=O)N[C@@H](Cc2c[nH]c3ccccc23)C(=O)N[C@@H](CC(C)C)C(=O)N[C@@H](CC(C)C)C(=O)N[C@@H](C)C(=O)NCC(=O)NCC(=O)N2CCC[C@H]2C(=O)N[C@@H](CO)C(=O)N[C@@H](CO)C(=O)NCC(=O)N[C@@H](C)C(=O)N2CCC[C@H]2C(=O)N2CCC[C@H]2C(=O)N2CCC[C@H]2C(=O)N[C@@H](CO)C(N)=O)C(C)C)NC(=O)[C@H](C)NC(=O)[C@H](C)NC(=O)[C@H](CCC(N)=O)NC1=O

What was measured:
Assay in all cases: cell-based or functional assay
[1] = target: GLP-1 receptor (UniProt P43220 24-463, limits assumed)
[2] = target: glucagon receptor (UniProt P47871 26-477, limits assumed)
Chain of glucagon receptor (P47871 26-477 limits assumed): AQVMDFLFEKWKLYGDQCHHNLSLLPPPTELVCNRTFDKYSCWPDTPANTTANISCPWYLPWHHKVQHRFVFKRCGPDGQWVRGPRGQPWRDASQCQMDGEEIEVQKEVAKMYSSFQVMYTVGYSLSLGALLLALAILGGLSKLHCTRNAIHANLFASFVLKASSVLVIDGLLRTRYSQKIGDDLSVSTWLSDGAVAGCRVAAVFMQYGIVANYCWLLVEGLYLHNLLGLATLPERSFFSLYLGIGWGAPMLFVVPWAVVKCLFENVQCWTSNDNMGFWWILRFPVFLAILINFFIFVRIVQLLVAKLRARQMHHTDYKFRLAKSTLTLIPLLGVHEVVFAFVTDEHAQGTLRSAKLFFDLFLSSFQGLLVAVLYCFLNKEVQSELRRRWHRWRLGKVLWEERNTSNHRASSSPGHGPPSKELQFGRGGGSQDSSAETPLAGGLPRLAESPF

[3] = target: T1, GIP receptor (UniProt P48546 22-466)
T1 sequence (looked up): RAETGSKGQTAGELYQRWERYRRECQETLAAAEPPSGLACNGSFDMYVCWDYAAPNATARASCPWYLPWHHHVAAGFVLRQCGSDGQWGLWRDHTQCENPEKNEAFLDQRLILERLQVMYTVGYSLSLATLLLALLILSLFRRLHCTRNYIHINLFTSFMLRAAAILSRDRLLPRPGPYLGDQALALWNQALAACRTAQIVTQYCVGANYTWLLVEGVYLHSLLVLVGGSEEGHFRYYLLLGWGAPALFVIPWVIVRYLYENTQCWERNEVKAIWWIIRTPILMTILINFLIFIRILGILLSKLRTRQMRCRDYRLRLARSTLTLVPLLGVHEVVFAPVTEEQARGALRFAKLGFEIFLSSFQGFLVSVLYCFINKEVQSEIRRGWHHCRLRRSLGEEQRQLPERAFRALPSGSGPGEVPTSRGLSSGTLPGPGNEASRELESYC

Binder	EC50 [1]	relative activity [1]	EC50 [2]	relative activity [2]	EC50 [3]	relative activity [3]
B1	0.12 nM	33.3%	0.773 nM	11.1%	14.6 nM	0.42%
B2	4.07 nM	1.12%	0.952 nM	17.3%	2.88 nM	2.06%
B3	0.068 nM	49.6%	0.149 nM	131%	0.366 nM	12.8%
B4	0.16 nM	36.8%	0.15 nM	269%	0.747 nM	10%
B5	1.48 nM	4.53%	0.086 nM	497%	2.63 nM	1.82%
B6	0.036 nM	142%	2.27 nM	16.8%	0.48 nM	18.5%

Source: patent US20110166062A1 (INDIANA UNIVERSITY RESEARCH AND TECHNOLOGY, published 2011)
